Biological target: low-density lipoprotein receptor-related protein 1 (LRP-1) (UniProt Q07954)
Experiment: not given
Conditions: not given

Chain of MMP-1 (P03956 100-469): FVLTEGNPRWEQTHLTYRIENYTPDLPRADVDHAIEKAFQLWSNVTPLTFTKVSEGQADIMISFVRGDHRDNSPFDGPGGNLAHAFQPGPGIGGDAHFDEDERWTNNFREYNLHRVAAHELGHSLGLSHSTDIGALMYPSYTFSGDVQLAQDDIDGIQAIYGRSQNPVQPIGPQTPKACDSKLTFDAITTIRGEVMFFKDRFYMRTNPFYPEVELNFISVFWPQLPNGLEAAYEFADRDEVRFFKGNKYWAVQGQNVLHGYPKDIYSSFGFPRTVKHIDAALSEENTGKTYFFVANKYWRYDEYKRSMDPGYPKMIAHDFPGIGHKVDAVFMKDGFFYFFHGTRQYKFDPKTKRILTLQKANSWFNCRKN
Chain of low-density lipoprotein receptor-related protein 1 (LRP-1) (Q07954 20-4544): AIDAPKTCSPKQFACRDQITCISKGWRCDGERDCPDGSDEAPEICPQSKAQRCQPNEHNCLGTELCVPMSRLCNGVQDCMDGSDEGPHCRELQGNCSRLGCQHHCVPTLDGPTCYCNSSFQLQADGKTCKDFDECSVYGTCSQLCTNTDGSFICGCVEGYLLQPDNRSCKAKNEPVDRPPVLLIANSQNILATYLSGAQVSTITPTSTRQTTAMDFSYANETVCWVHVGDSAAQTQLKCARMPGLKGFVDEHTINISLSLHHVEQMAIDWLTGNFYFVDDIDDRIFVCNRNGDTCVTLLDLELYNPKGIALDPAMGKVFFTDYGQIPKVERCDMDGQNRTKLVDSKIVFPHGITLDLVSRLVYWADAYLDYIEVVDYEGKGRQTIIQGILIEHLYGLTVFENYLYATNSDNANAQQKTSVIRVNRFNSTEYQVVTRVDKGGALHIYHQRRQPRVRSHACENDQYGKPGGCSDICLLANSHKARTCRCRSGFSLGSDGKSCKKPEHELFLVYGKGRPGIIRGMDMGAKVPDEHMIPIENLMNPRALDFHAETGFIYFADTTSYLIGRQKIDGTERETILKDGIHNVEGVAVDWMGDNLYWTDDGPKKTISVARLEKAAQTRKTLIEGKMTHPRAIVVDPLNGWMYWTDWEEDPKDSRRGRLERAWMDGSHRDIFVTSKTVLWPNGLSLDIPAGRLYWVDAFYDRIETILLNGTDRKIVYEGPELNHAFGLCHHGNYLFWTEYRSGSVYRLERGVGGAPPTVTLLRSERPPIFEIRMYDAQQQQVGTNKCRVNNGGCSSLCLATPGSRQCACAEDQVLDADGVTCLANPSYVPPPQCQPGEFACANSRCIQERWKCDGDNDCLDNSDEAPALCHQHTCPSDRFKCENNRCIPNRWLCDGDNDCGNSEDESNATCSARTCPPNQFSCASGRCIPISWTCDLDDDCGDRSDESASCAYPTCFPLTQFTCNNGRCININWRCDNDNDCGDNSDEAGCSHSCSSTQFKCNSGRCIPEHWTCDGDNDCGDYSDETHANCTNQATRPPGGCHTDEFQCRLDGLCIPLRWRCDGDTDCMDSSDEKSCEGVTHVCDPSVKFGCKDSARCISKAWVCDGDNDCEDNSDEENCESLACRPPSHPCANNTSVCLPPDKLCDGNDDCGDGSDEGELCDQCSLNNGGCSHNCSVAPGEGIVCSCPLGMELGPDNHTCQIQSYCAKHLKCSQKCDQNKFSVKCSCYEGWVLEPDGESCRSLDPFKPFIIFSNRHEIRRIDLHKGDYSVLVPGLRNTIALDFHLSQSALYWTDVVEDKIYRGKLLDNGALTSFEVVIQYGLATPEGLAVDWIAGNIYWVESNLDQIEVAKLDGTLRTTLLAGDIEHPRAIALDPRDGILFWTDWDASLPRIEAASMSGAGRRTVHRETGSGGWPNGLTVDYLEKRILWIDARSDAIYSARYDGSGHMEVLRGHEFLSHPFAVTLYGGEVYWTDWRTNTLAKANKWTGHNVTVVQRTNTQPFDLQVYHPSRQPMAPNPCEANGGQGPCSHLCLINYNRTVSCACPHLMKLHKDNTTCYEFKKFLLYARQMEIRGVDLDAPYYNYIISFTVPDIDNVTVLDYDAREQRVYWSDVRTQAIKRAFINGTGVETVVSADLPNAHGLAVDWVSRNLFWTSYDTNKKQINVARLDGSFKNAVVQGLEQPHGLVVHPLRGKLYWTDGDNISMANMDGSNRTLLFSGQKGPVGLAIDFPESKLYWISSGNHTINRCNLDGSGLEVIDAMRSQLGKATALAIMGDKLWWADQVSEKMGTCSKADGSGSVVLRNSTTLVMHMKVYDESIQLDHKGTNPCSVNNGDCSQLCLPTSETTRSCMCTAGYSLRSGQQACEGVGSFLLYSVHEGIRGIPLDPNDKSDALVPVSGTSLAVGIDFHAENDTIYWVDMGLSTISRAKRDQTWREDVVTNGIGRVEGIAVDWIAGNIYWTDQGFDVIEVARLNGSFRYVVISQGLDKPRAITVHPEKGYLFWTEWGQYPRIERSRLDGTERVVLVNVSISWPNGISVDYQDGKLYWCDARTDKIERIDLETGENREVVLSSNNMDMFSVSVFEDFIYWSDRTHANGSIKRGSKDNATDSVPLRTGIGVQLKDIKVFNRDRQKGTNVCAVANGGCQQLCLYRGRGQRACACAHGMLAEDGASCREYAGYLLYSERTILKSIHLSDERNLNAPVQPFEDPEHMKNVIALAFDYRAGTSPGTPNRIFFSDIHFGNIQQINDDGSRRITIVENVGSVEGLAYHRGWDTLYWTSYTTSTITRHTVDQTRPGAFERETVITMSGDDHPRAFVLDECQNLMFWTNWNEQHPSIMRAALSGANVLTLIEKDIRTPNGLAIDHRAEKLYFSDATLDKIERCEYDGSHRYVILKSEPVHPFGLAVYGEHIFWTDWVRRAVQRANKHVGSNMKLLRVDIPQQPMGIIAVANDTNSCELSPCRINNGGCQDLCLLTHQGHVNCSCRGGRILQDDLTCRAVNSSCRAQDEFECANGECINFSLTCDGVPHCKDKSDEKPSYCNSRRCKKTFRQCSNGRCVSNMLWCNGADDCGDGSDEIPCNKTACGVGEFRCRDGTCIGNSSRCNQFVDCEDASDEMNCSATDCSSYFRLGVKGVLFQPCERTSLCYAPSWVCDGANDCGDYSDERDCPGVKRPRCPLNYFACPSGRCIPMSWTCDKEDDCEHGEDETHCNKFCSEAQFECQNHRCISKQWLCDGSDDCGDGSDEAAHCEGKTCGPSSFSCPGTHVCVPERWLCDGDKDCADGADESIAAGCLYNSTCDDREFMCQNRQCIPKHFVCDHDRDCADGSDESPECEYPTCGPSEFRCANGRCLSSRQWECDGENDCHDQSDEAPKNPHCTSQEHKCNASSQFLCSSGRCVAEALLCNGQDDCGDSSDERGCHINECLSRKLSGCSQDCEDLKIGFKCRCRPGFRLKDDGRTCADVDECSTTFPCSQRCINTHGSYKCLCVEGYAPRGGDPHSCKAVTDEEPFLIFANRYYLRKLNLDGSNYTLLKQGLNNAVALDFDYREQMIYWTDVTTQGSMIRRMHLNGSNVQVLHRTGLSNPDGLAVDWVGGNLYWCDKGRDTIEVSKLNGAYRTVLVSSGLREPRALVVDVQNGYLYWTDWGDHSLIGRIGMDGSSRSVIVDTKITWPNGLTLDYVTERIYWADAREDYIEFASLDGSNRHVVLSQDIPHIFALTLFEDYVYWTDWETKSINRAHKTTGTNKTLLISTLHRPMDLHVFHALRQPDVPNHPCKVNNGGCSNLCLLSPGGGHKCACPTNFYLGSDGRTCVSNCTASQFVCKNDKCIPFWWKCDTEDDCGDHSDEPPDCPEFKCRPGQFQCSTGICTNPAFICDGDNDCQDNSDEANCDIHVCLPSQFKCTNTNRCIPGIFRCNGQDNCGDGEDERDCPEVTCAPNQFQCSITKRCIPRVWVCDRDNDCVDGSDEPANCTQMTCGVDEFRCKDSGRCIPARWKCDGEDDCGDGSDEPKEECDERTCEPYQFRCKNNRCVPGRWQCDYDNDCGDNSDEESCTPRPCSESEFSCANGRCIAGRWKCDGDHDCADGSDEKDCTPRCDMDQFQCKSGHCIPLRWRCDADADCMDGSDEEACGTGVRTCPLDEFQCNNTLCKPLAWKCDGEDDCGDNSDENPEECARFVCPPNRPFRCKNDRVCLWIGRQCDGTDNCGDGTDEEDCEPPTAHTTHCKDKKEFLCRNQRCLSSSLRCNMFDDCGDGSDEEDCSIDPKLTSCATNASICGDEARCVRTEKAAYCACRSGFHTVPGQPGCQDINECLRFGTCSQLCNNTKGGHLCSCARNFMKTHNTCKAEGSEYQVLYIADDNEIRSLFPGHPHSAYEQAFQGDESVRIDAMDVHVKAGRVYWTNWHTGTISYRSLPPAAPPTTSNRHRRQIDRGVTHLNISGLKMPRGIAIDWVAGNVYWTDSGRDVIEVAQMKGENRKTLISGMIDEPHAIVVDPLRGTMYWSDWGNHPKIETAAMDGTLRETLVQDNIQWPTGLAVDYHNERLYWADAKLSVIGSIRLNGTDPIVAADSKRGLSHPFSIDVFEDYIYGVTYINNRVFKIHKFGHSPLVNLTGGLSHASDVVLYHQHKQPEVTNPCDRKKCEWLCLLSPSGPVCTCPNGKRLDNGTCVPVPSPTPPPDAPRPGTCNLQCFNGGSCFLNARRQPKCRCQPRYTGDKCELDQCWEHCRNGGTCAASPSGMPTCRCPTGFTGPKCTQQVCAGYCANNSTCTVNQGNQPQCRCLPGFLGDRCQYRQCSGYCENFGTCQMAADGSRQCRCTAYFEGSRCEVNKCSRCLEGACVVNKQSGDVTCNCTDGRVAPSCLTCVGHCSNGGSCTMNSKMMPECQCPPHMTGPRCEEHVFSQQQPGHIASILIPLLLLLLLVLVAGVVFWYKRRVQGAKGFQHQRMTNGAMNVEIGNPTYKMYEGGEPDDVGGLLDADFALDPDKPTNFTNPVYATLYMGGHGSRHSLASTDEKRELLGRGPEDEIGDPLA

Row | decrease in clearance of 10 nM intact [35S]MMP-1 from the conditioned medium of HTB94 cells, 0-24 h | Substance
1 | 20% | full length MMP-1 (enzyme)

Biological target: TIMP-2 (Homo sapiens) (UniProt P16035)
Experiment: not given
Conditions: cited from earlier work

Row | Substance | Ki
2 | MMP-1 (from UniProt P03956) | 1.03 nM

Biological target: TIMP-3 (Homo sapiens) (UniProt P35625)
Experiment: not given
Conditions: cited from earlier work

Row | Substance | Ki
3 | MMP-1 (from UniProt P03956) | 1.1 nM

Biological target: TIMP-1 (Homo sapiens) (UniProt P01033)
Experiment: not given
Conditions: cited from earlier work

Row | Substance | Ki
4 | MMP-1 (from UniProt P03956) | 0.38 nM

Biological target: LRP-1 (Homo sapiens) (UniProt Q07954)
Sequence (Q07954 20-4544): as above
Experiment: not given
Conditions: cited from earlier work

Row | Substance | Kd
5 | RAP (from UniProt P30533) | 1.4 nM

Biological target: low-density lipoprotein receptor-related protein 1 (LRP-1) (UniProt Q07954)
Experiment: SPR; BIAcore T200; LRP-1 immobilised on a CM5 chip by amine coupling (3000 RU); 25 °C; 150 mM NaCl, 10 mM CaCl2, 50 mM Tris-HCl, 0.01% Tween-20, pH 7.5; 30 μl/min; ligands or pre-formed complexes injected; one-site binding model; triplicate
Conditions: not given

Row | Kd | koff | kon | Substance
6 | 7.8 nM | 0.00327 s⁻¹ | 419000 M⁻¹ s⁻¹ | MMP-1/TIMP-2 complex (from UniProt P16035 27-220)
7 | 4.96 nM | 0.00228 s⁻¹ | 461000 M⁻¹ s⁻¹ | MMP-1/TIMP-3 complex (from UniProt P35625 24-211)
8 | 25.6 nM | 0.00598 s⁻¹ | 234000 M⁻¹ s⁻¹ | MMP-13 (E204A), catalytically inactive mutant (enzyme)
9 | 34.6 nM | 0.00468 s⁻¹ | 136000 M⁻¹ s⁻¹ | MMP-1 (E200A), catalytically inactive form of MMP-1 (enzyme)
10 | 5.59 nM | 0.00241 s⁻¹ | 431000 M⁻¹ s⁻¹ | MMP-13/TIMP-2 complex (from UniProt P45452 20-471; P16035 27-220)
11 | 16.5 nM | 0.0064 s⁻¹ | 390000 M⁻¹ s⁻¹ | MMP-1/TIMP-1 complex (from UniProt P01033 24-207)
12 | 3.35 nM | 0.00295 s⁻¹ | 882000 M⁻¹ s⁻¹ | MMP-13/TIMP-3 complex (from UniProt P45452 20-471; P35625 24-211)
13 | 10.6 nM | 0.00345 s⁻¹ | 326000 M⁻¹ s⁻¹ | MMP-13/TIMP-1 complex (from UniProt P45452 20-471; P01033 24-207)
14 | 4.3 nM | 0.00246 s⁻¹ | 573000 M⁻¹ s⁻¹ | MMP-1/N-TIMP-3 complex

Source: article PMC7374751
